How the values were obtained:
[1] = molecular target: Cytochrome b5 (Homo sapiens) (UniProt P00167); assay: PIF-agarose affinity extraction of normal human liver lysate 1, LC-MS/MS
[2] = molecular target: Protein disulfide-isomerase (Homo sapiens) (UniProt P07237); assay: as above
[3] = molecular target: Alcohol dehydrogenase 1A (Homo sapiens) (UniProt P07327); assay: as above
[4] = molecular target: Tropomyosin alpha-4 chain (Homo sapiens) (UniProt P67936); assay: as above
[5] = molecular target: Alpha-actinin-4 (Homo sapiens) (UniProt O43707); assay: as above
Chain of Alpha-actinin-4 (Homo sapiens) (O43707 whole entry): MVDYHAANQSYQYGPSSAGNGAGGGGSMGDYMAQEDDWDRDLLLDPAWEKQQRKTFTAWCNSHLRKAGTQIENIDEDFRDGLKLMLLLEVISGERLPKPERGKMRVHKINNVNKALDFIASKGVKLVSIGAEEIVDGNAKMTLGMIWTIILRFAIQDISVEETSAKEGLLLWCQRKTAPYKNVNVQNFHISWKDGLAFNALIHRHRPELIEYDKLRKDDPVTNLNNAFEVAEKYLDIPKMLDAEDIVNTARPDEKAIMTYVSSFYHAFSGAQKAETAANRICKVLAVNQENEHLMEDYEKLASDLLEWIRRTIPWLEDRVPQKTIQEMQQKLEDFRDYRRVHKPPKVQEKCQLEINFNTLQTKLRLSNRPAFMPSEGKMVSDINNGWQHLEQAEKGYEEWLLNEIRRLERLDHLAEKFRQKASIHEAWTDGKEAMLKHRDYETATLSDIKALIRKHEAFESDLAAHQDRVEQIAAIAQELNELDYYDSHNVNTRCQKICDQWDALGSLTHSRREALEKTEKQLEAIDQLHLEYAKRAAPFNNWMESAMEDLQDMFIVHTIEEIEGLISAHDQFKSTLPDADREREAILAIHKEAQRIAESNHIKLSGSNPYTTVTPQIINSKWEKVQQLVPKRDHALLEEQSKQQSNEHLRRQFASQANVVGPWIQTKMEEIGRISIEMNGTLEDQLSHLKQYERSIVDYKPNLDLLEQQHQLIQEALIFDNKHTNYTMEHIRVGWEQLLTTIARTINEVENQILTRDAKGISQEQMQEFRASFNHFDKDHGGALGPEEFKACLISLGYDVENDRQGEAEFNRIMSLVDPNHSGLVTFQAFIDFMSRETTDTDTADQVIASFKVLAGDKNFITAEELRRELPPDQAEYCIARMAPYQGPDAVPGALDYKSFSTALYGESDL

[6] = molecular target: Cytochrome b-c1 complex subunit 6, mitochondrial (Homo sapiens) (UniProt P07919); assay: as above
Chain of Cytochrome b-c1 complex subunit 6, mitochondrial (Homo sapiens) (P07919 14-91 limits assumed, one chain of several): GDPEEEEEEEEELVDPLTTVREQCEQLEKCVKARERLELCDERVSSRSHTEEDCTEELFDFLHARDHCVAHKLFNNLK

[7] = molecular target: Protein disulfide-isomerase A4 (Homo sapiens) (UniProt P13667); assay: as above
Chain of Protein disulfide-isomerase A4 (Homo sapiens) (P13667 21-645 limits assumed): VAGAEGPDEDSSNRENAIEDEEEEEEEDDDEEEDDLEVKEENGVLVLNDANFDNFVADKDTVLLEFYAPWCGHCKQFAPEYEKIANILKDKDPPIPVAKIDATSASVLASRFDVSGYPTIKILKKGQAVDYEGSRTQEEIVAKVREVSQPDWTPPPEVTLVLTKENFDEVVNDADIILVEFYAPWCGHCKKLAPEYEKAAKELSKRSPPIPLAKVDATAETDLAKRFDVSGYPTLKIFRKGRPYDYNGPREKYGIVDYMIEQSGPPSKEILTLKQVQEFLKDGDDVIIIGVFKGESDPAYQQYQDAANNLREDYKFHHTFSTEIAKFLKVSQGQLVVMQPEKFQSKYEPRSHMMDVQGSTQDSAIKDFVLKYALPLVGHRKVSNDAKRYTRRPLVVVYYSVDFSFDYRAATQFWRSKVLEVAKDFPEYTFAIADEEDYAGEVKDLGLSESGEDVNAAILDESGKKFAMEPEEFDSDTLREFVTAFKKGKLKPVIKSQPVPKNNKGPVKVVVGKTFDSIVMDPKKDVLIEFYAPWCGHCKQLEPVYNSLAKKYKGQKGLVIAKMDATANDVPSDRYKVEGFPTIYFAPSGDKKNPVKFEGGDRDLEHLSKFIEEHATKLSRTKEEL

[8] = molecular target: Hepatoma-derived growth factor (Homo sapiens) (UniProt P51858); assay: as above
Chain of Hepatoma-derived growth factor (Homo sapiens) (P51858 whole entry): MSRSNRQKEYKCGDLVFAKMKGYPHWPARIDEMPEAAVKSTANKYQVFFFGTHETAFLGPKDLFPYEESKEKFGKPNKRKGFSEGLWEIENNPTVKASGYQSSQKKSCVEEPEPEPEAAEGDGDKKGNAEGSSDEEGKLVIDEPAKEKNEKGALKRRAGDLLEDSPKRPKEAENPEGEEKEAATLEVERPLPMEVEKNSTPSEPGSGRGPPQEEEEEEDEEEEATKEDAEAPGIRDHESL

[9] = molecular target: Membrane-associated progesterone receptor component 1 (Homo sapiens) (UniProt O00264); assay: as above
Chain of Membrane-associated progesterone receptor component 1 (Homo sapiens) (O00264 whole entry): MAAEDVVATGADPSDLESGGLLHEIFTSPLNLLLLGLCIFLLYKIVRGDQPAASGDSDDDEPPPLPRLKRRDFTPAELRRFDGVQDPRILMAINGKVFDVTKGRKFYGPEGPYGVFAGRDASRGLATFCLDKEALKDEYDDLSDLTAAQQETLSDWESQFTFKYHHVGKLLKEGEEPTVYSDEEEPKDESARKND

[10] = molecular target: Peroxiredoxin-1 (Homo sapiens) (UniProt Q06830); assay: as above
Chain of Peroxiredoxin-1 (Homo sapiens) (Q06830 2-199 limits assumed): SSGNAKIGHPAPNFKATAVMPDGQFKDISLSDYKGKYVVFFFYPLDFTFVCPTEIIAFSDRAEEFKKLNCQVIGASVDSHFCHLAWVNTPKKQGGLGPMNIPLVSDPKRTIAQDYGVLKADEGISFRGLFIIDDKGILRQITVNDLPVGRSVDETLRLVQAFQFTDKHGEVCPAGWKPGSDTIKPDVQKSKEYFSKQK

[11] = molecular target: Cytosolic 10-formyltetrahydrofolate dehydrogenase (Homo sapiens) (UniProt O75891); assay: as above
Chain of Cytosolic 10-formyltetrahydrofolate dehydrogenase (Homo sapiens) (O75891 whole entry): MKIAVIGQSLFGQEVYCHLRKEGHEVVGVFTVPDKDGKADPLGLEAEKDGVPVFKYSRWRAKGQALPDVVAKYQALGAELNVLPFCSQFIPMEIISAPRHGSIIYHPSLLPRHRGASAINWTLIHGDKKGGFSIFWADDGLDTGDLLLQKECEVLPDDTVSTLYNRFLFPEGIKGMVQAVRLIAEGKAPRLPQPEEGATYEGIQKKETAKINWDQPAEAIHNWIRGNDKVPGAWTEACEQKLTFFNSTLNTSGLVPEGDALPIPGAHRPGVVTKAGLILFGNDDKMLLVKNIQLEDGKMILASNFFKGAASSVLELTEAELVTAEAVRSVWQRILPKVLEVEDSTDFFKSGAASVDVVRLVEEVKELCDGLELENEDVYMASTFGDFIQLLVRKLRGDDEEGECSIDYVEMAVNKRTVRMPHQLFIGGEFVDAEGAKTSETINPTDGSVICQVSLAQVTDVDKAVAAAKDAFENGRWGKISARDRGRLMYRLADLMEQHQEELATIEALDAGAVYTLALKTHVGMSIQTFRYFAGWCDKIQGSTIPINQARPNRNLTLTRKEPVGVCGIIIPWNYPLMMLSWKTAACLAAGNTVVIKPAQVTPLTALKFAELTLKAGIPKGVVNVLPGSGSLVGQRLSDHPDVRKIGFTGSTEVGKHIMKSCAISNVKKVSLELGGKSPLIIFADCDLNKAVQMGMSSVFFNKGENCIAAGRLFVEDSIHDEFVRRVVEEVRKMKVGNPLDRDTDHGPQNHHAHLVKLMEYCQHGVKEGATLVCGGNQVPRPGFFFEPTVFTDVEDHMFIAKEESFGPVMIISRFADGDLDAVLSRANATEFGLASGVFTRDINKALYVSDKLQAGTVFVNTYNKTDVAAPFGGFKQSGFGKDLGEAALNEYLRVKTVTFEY

[12] = molecular target: Alcohol dehydrogenase 4 (Homo sapiens) (UniProt P08319); assay: as above
Chain of Alcohol dehydrogenase 4 (Homo sapiens) (P08319 whole entry): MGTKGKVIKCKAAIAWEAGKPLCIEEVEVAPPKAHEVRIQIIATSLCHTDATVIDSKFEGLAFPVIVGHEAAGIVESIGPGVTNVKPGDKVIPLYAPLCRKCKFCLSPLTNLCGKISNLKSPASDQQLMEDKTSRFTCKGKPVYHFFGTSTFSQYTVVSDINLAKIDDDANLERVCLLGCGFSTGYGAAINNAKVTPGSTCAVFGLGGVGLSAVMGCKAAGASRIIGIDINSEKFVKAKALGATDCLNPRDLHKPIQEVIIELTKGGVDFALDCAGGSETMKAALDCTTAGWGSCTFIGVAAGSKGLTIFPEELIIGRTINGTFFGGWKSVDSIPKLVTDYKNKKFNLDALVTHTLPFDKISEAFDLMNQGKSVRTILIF

[13] = molecular target: 14-3-3 protein epsilon (Homo sapiens) (UniProt P62258); assay: as above
Chain of 14-3-3 protein epsilon (Homo sapiens) (P62258 whole entry): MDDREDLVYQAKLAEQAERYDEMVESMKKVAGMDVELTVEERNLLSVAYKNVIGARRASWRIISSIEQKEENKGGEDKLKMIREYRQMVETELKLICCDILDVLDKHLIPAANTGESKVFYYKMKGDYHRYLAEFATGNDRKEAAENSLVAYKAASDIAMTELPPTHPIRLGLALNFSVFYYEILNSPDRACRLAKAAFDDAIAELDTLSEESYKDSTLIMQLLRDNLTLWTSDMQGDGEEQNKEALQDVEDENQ

[14] = molecular target: Endoplasmin (Homo sapiens) (UniProt P14625); assay: PIF-agarose affinity extraction of normal human liver lysate 2, LC-MS/MS
[15] = molecular target: Cytochrome b5 (Homo sapiens) (UniProt P00167); assay: as above
[16] = molecular target: Protein disulfide-isomerase (Homo sapiens) (UniProt P07237); assay: as above
[17] = molecular target: Alcohol dehydrogenase 1A (Homo sapiens) (UniProt P07327); assay: as above
[18] = molecular target: Calmodulin (Homo sapiens) (UniProt P0DP23); assay: as above
[19] = molecular target: Alcohol dehydrogenase 1B (Homo sapiens) (UniProt P00325); assay: as above
[20] = molecular target: Tropomyosin alpha-4 chain (Homo sapiens) (UniProt P67936); assay: as above
[21] = molecular target: Enoyl-CoA hydratase domain-containing protein 2, mitochondrial (Homo sapiens) (UniProt Q86YB7); assay: as above
[22] = molecular target: Alpha-actinin-4 (Homo sapiens) (UniProt O43707); assay: as above
[23] = molecular target: Cytochrome b-c1 complex subunit 6, mitochondrial (Homo sapiens) (UniProt P07919); assay: as above
[24] = molecular target: Protein disulfide-isomerase A4 (Homo sapiens) (UniProt P13667); assay: as above
[25] = molecular target: Calreticulin (Homo sapiens) (UniProt P27797); assay: as above
[26] = molecular target: Hepatoma-derived growth factor (Homo sapiens) (UniProt P51858); assay: as above
[27] = molecular target: Membrane-associated progesterone receptor component 1 (Homo sapiens) (UniProt O00264); assay: as above
[28] = molecular target: Parathymosin (Homo sapiens) (UniProt P20962); assay: as above
[29] = molecular target: Delta-aminolevulinic acid dehydratase (Homo sapiens) (UniProt P13716); assay: as above
[30] = molecular target: Peroxiredoxin-1 (Homo sapiens) (UniProt Q06830); assay: as above
[31] = molecular target: Activated RNA polymerase II transcriptional coactivator p15 (Homo sapiens) (UniProt P53999); assay: as above
[32] = molecular target: Cytosolic 10-formyltetrahydrofolate dehydrogenase (Homo sapiens) (UniProt O75891); assay: as above
[33] = molecular target: Alcohol dehydrogenase 4 (Homo sapiens) (UniProt P08319); assay: as above
[34] = molecular target: 14-3-3 protein epsilon (Homo sapiens) (UniProt P62258); assay: as above
Vimentin (Homo sapiens) = Vimentin (Homo sapiens) (UniProt P08670); assay: as above
[35] = molecular target: 78 kDa glucose-regulated protein (Homo sapiens) (UniProt P11021); assay: as above
[36] = molecular target: Protein disulfide-isomerase A3 (Homo sapiens) (UniProt P30101); assay: as above
[37] = molecular target: Transitional endoplasmic reticulum ATPase (Homo sapiens) (UniProt P55072); assay: as above

Chain of Tropomyosin alpha-4 chain (Homo sapiens) (P67936 2-248 limits assumed): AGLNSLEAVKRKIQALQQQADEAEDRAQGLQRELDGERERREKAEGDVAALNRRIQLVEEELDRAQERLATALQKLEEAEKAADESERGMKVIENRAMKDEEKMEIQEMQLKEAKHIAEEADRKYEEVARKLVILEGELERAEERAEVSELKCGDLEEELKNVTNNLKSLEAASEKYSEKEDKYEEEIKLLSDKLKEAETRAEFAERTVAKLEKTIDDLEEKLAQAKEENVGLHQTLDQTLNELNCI
Chain of Protein disulfide-isomerase (Homo sapiens) (P07237 18-508 limits assumed): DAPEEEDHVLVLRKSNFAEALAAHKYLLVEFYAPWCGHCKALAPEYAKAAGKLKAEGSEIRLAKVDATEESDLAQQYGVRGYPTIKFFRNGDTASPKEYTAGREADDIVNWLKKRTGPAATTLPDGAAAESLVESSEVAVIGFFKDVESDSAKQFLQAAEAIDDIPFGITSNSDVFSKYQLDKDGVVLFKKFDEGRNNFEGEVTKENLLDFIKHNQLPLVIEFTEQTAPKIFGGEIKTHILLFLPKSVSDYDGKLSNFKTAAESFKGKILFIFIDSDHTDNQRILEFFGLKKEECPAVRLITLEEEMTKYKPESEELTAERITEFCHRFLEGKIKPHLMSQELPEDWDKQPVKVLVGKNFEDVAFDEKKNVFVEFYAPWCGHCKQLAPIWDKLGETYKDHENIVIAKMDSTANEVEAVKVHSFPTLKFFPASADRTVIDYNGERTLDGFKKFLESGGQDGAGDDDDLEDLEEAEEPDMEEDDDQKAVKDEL
Chain of Alcohol dehydrogenase 1A (Homo sapiens) (P07327 2-375 limits assumed): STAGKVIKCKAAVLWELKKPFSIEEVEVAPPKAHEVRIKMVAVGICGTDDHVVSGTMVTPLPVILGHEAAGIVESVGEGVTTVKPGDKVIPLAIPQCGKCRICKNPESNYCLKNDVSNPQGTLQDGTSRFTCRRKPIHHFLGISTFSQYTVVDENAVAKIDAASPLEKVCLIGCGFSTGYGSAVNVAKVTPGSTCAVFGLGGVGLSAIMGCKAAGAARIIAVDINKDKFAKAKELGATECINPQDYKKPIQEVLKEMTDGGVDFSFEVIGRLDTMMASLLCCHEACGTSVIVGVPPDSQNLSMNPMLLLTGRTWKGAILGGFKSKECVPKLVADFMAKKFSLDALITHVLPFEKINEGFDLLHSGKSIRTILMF

sPIF-1(15) (peptide) was tested, and the % Coverage of the unique peptides observed [1] was 49%, the % Coverage of the unique peptides observed [2] was 76% and the % Coverage of the unique peptides observed [3] was 48%. It also gave a % Coverage of the unique peptides observed [4] of 47%, a % Coverage of the unique peptides observed [5] of 48% and a % Coverage of the unique peptides observed [6] of 53%. For the same substance, the % Coverage of the unique peptides observed [7] was 52%, the % Coverage of the unique peptides observed [8] was 60% and the % Coverage of the unique peptides observed [9] was 46%. The % Coverage of the unique peptides observed [10] was 57%, the % Coverage of the unique peptides observed [11] was 64% and the % Coverage of the unique peptides observed [12] was 53%. It also gave a % Coverage of the unique peptides observed [13] of 78%, a % Coverage of the unique peptides observed [14] of 45% and a % Coverage of the unique peptides observed [15] of 56%. For the same substance, the % Coverage of the unique peptides observed [16] was 76%, the % Coverage of the unique peptides observed [17] was 53% and the % Coverage of the unique peptides observed [18] was 46%. The % Coverage of the unique peptides observed [19] was 54%, the % Coverage of the unique peptides observed [20] was 48% and the % Coverage of the unique peptides observed [21] was 42%. For the same substance, the % Coverage of the unique peptides observed [22] was 45%, the % Coverage of the unique peptides observed [23] was 53% and the % Coverage of the unique peptides observed [24] was 52%. The % Coverage of the unique peptides observed [25] was 69%, the % Coverage of the unique peptides observed [26] was 56% and the % Coverage of the unique peptides observed [27] was 46%. It also gave a % Coverage of the unique peptides observed [28] of 48%, a % Coverage of the unique peptides observed [29] of 49% and a % Coverage of the unique peptides observed [30] of 58%. For the same substance, the % Coverage of the unique peptides observed [31] was 44%, the % Coverage of the unique peptides observed [32] was 34% and the % Coverage of the unique peptides observed [33] was 52%. The % Coverage of the unique peptides observed [34] was 71%, the % Coverage of the unique peptides observed (Vimentin (Homo sapiens)) was 49% and the % Coverage of the unique peptides observed [35] was 51%. The % Coverage of the unique peptides observed [36] was 44% and the % Coverage of the unique peptides observed [37] was 51%.

Source: patent publication US20230190867A1, “METHODS OF TREATING NASH AND COMPOSITIONS THEREFORE” (BIOINCEPT, LLC, priority 2018, published 2023)
